Read-outs that look alike come from different tables or passages of the source.
Experiments:
[1] = target: T1, Fc tagged human SIRPα v2 ECD recombinant protein (human); experiment: ELISA
T1 construct: range 1-369; cloned range M1-R369 includes the signal peptide; also called hSIRPα V2
Protocol: (§1) Binding specificity of the purified hybridoma antibodies against SIRP family members was detected by ELISA assay using recombinant proteins of Fc tagged human SIRPα v1 ECD, human SIRPα v2 ECD, human SIRPβ ECD and human SIRPγ ECD. Briefly the antibodies were incubated with ELISA microplate coated antigens at 37° C. for 1 hour. After washing, horseradish peroxidase (HRP) labeled anti-mouse or anti-human IgG 2nd Ab (Sigma) was added and incubated at 37° C. for 1 hour. Then, 100 μl/well of TMB solution (Biotechnology) was added. After incubation for 15 minutes at room temperature, the reaction was stopped by the addition of 50 μl of 1N HCl. OD 450 nm was read and EC₅₀ was calculated. Other than 060 and HEFLB, all of the antibodies as tested can bind with both human SIRPα v1 and SIRPα v2. 060 and HEFLB can bind with human SIRPα v1 but not v2. Other than 055, all of the antibodies as tested can bind with human SIRPβ. In comparison with other known anti-SIRPα antibodies, only 022, 035 and 050 can bind with human SIRPγ weakly.
(§2) The purified chimeric antibodies were applied for binding specificity analysis and species cross reactivity analysis (refer to methods described in Example 3.3 and 3.4). FIGS. 1A to 1D show binding specificity of anti-SIRPα chimeric antibodies against recombinant proteins of human SIRPα v1 ECD (A), human SIRPα v2 ECD (B), human SIRPβ ECD (C) and human SIRPγ ECD (D) as measured by ELISA analysis.

[2] = target: T1, Fc tagged human SIRPα v2 ECD …; experiment: ELISA; remark: listed apart in the source
Protocol: as §1, §2

[3] = target: T2, Fc tagged human SIRPβ ECD recombinant protein (human, UniProt O00241 30-371); experiment: ELISA
T2 construct: range 1-371; cloned range includes the signal peptide; also called hSIRPβ; not shown: human IgG Fc region (hFc) of the pCPC vector
Protocol: as §1, §2

[4] = target: T2, Fc tagged human SIRPβ ECD recombinant …; experiment: ELISA; remark: listed apart in the source
Protocol: as §1, §2

[5] = target: T3, Fc tagged human SIRPα v1 ECD recombinant protein (human, UniProt P78324 31-370); experiment: ELISA
T3 construct: range 1-370; cloned range M1-R370 includes the signal peptide; also called hSIRPα V1; not shown: human IgG Fc region (hFc) of the pCPC vector
Protocol: as §1

[6] = target: T1, Fc tagged human SIRPα v2 ECD …; experiment: ELISA; remark: listed apart in the source
Protocol: as §1

[7] = target: T2, Fc tagged human SIRPβ ECD recombinant …; experiment: ELISA; remark: listed apart in the source
Protocol: as §1

[8] = target: T4, biotin labeled soluble human SIRPα v1 ECD recombinant protein (human, UniProt P78324 31-373, biotin labeled); experiment: competitive ELISA; competitor 001
T4 construct: extracellular domain
Protocol: (§3) Competitive ELISA assay was used for epitope binning of 9 functional antibodies. Briefly excessive competitor antibody and biotin labeled soluble human SIRPα v1 ECD recombinant protein were co-incubated with ELISA microplate coated antibody. After washing, HRP-SA was added and incubated at 37° C. for 1 hour. Then, […] of TMB solution (Biotechnology) was added. After incubation for 15 minutes at room temperature, the reaction was stopped by the addition of […] of 1N HCl. OD 450 nm was read. Competition ratio was calculated. The antibodies that can compete each other for binding to SIRPα have the similar binding epitope.

[9] = target: T4, biotin labeled soluble human SIRPα v1 …; experiment: competitive ELISA; competitor 022
Protocol: as §3

[10] = target: T4, biotin labeled soluble human SIRPα v1 …; experiment: competitive ELISA; competitor 035
Protocol: as §3

[11] = target: T4, biotin labeled soluble human SIRPα v1 …; experiment: competitive ELISA; competitor 050
Protocol: as §3

[12] = target: T4, biotin labeled soluble human SIRPα v1 …; experiment: competitive ELISA; competitor 055
Protocol: as §3

[13] = target: T4, biotin labeled soluble human SIRPα v1 …; experiment: competitive ELISA; competitor HEFLB
Protocol: as §3

[14] = target: T4, biotin labeled soluble human SIRPα v1 …; experiment: competitive ELISA; competitor 29-AM4-5
Protocol: as §3

T3 sequence (P78324 31-370 limits assumed): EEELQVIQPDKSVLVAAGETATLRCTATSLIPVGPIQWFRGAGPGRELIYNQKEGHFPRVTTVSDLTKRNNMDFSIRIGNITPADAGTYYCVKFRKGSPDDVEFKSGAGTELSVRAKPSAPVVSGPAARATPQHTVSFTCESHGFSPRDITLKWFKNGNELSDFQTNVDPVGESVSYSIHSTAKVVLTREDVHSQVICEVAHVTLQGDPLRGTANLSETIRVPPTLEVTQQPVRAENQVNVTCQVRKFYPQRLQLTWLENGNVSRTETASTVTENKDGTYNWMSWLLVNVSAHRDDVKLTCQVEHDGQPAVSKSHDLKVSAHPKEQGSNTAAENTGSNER
T2 sequence (O00241 30-371 limits assumed, form in doubt): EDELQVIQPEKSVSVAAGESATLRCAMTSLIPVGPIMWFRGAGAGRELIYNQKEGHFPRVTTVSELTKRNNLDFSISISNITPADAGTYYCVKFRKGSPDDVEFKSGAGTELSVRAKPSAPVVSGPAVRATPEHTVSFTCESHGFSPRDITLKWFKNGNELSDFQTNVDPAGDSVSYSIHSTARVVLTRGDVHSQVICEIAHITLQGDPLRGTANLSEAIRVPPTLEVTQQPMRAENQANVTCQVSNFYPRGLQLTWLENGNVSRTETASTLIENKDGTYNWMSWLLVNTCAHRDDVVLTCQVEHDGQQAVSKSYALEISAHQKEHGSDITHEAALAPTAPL
T4 sequence (P78324 31-373): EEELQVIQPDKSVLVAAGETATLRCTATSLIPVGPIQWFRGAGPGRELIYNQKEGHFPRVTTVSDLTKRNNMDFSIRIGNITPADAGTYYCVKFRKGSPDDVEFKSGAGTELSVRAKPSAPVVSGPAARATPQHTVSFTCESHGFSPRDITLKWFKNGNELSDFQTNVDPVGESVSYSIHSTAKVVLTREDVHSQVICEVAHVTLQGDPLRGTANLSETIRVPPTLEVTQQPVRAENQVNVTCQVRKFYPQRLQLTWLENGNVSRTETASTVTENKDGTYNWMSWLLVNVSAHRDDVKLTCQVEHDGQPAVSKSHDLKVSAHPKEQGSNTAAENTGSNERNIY

EC50 [1] [pM]	EC50 [2] [pM]	EC50 [3] [pM]	EC50 [4] [pM]	EC50 [5] [pM]	EC50 [6] [pM]	EC50 [7] [pM]	% Competition [8] [%]	% Competition [9] [%]	% Competition [10] [%]	% Competition [11] [%]	% Competition [12] [%]	% Competition [13] [%]	% Competition [14] [%]	Binder
–	–	–	–	20	20	20	33	-5	10	7	-17	-14	-19	Antibody 074 (hybridoma antibody) (antibody, V domains shown, mouse hybridoma antibody) VH: QVQLQQPRAELVKPGASVMLSCKASGYTFSSYWIHWVRQGPGQGLEWIGLIHPNSGNTDCSETFKNKATLTVDTSSSTAYMQLSSLASEDSAVYYCARDGASYDWFVHWGQGTLVTVSA VL: not shown
90	90	120	120	–	–	–	–	–	–	–	–	–	–	chimeric antibody 001c (antibody, V domains shown) VH: EVKLEESGGGLVQPGGSMKLSCVASGFTFRNYWMNWVRQSPERGLEWIAEISLKSNTYATHYAESVKGRFAISRDGSKSSFYLQMNDLRAEDTGIYYCTTFTKVVADWHLDVWGAGTTVTVSS VL: DVLMTQTPLSLPVSLGDQASISCRSSQNIVHSNGNTYLEWYLQKPGQSPKLLIYKVSNRFSGVPDRFSGSGSGTDFTLRISRVEAEDLGVYYCFQGSHVPFTFGSGTKLEIK
110	110	120	120	–	–	–	–	–	–	–	–	–	–	chimeric antibody 032c (antibody, V domains shown) VH: EVRLEESGGGLVQPGGSMKLSCVVSGFTFRNYWMNWVRQSPERGLEWIAEITLKSNTYATHYAESVKGRFAISRDDSKSSFYLQMNDLRPEDTGIYYCTTFTKVVADWHLDVWGAGTTVTVSS VL: DVLMTQTPLSLPVNLGDQASISCRSSQNIVHSNGNTYLEWYLQKPGQSPKLLIYKVSNRFSGVPDRFSGSGSGTDFTLRISRVEAEDLGVYYCFQGSHVPFTFGSGTKLEIK
110	110	80	80	–	–	–	–	–	–	–	–	–	–	chimeric antibody 022c (antibody, V domains shown) VH: QIQLVQSGPELKKPGETVKISCKASGYTFTDYAMHWVKQAPGKGLKWMGWKNTETGESTYAEDFKGRFAFFLETSASTAYLQINNVKNEDTATYFCARGGYGSNYVMDYWGQGTSVIVSS VL: DIQMTQSSSSFSVSLGDRVTITCKASEDIYNRLAWYQQKPGNAPRLLISGATSLETGVPSRFSGSGSGKDYTLSITSLQTEDVATYYCQQYWNSPRTFGGGTKLEIK
–	–	240	240	–	–	–	–	–	–	–	–	–	–	chimeric antibody 060c (antibody, V domains shown) VH: QVQLKESGPGLVAPSESLSITCTVSGFSLTNYDISWIRQSPGKGLEWLGVIWTGGDTNFNSAFMSRLSISKDKSKSQVFLKLNSLQTDDTAIYYCVRVQYFGGSYGPMDYWGQGISVTVSS VL: DIQMTQASSYLSVSLGGRVTITCEASDHINDWLAWYQQTPGNAPRLLISGATSLETGVPSRFSGSGSGKDYTLSITSLQTEDIATYYCQQYWNTPLTFGAGTRLELK

Continued, binder first:

Binder	EC50 [1] [pM]	EC50 [2] [pM]	EC50 [3] [pM]	EC50 [4] [pM]	EC50 [5] [pM]	EC50 [6] [pM]	EC50 [7] [pM]	% Competition [8] [%]	% Competition [9] [%]	% Competition [10] [%]	% Competition [11] [%]	% Competition [12] [%]	% Competition [13] [%]	% Competition [14] [%]
chimeric antibody 055c (antibody, V domains shown) VH: EVKLVESEGGLVQPGDSMKLSCTASGFTFSDYFMTWIRQVPEKGLEWIANVNYDGRSTYYLDSLKSRFIISRDNANNILYLQMSSLKSEDTATYYCAREGSQTPLYAVDYWGQGTSVTVSS VL: DIVMTQSQKFMSTTVGDRVNITCKASQNVGTAVAWYQQKPGQSPKLLIYLASNRYTGVPDRFTGSGSGTDFTLTVSDMRSEDLADYFCQQYSIYPFTFGSGTKLEIK	110	110	–	–	–	–	–	–	–	–	–	–	–	–
chimeric antibody 074c (antibody, V domains shown) VH: QVQLQQPRAELVKPGASVMLSCKASGYTFSSYWIHWVRQGPGQGLEWIGLIHPNSGNTDCSETFKNKATLTVDTSSSTAYMQLSSLASEDSAVYYCARDGASYDWFVHWGQGTLVTVSA VL: not shown	140	140	110	110	–	–	–	–	–	–	–	–	–	–
chimeric antibody 050c (antibody, V domains shown) VH: QIQLVQSGPELKKPGETVKISCKASGYTFTHYSMHWVKQAPGKGLKWMGWINTETAEPTYVDDFKGRFAFSLEASASTAFFQINNLKNEDTATYFCARGGLRQGDYWGQGTTLTVSS VL: QIVLTQSPPIMSASPGEKVTLTCSATSSVSASYLYWFQQKPGSSPKLWIYSTSNLASGVPARFSGSGSGTSYSLTISNMEPADAASYFCHQWSSYPYTFGGGTKLEIK	100	100	80	80	–	–	–	–	–	–	–	–	–	–
Antibody 050 (hybridoma antibody) (antibody, V domains shown, mouse hybridoma antibody) VH: QIQLVQSGPELKKPGETVKISCKASGYTFTHYSMHWVKQAPGKGLKWMGWINTETAEPTYVDDFKGRFAFSLEASASTAFFQINNLKNEDTATYFCARGGLRQGDYWGQGTTLTVSS VL: QIVLTQSPPIMSASPGEKVTLTCSATSSVSASYLYWFQQKPGSSPKLWIYSTSNLASGVPARFSGSGSGTSYSLTISNMEPADAASYFCHQWSSYPYTFGGGTKLEIK	–	–	–	–	80	80	110	2	79	-4	83	-16	-14	-6
chimeric antibody 002c (antibody, V domains shown) VH: EVKLEESGGGLVQPGGSMILSCVASGFTFRNYWMNWVRQSPERGLEWIAEITLKSNTYATHYAESVKGRFAISRDDSKSSFYLQMNDLRPEDTGIYYCTTFTKVVADWHLDVWGAGTTVTVSS VL: DVLMTQTPLSLPVSLGDQASISCRSSQNIVHSNGNTYLEWYLQKPGQSPKLLIYKISNRFSGVPDRFSGSGSGTDFTLRISRVEAEDLGVYYCFQGSHVPFTFGSGTKLEIQ	60	60	110	110	–	–	–	–	–	–	–	–	–	–
Antibody 022 (hybridoma antibody) (antibody, V domains shown, mouse hybridoma antibody) VH: QIQLVQSGPELKKPGETVKISCKASGYTFTDYAMHWVKQAPGKGLKWMGWKNTETGESTYAEDFKGRFAFFLETSASTAYLQINNVKNEDTATYFCARGGYGSNYVMDYWGQGTSVIVSS VL: DIQMTQSSSSFSVSLGDRVTITCKASEDIYNRLAWYQQKPGNAPRLLISGATSLETGVPSRFSGSGSGKDYTLSITSLQTEDVATYYCQQYWNSPRTFGGGTKLEIK	–	–	–	–	40	40	30	2	81	0	79	1	1	2
chimeric antibody 035c (antibody, V domains shown) VH: QIQLVQSGPELRKPGETVKISCKASGYSFTNYAMNWVKQAPGKVLKWMGFINTYTGEPTYADDFKGRFAFSLETSASTAYLQINNLKNEDTATYFCTRTRGYYDFDGGAFDYWGQGTSLTVSS VL: DIVMTQSQKFMSTSIGDRVSVTCKASQNVGTHLAWYQQKPGQSPKALIFSASYRYIGVPDRFTGSGSGTDFTLTITNVQSEDLAEYFCQQYNTYPLTFGAGTKLELK	80	80	80	80	–	–	–	–	–	–	–	–	–	–

Reference: US20210347908A1 (ELPISCIENCE SUZHOU BIOPHARMA, published 2021)
